{"source": "the nanobody polyreactivity screen of Harvey et al. (2022)"}
{"assay": "yeast display, Sf9 membrane polyspecificity reagent, FACS + sequencing; frameworks hold sequencing errors", "method_in_brief": "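Polyreactivity labels are assigned by the sorting gate from which each nanobody was recovered. The gates were low and high (top ~1%), set on anti-HA fluorescence for expression and streptavidin fluorescence for reagent binding. Before sorting, galactose-induced (36–48 hours) yeast display cells were stained for 1 hour at 4 °C with 10% biotinylated, detergent-solubilized Sf9 membrane reagent.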"}
{"sequence": "QVQLVESGGGLIQAGGSLRLSCAASGIIFYPYTMGWYRQAPGKERELVAAIRQSGTSTYYADSVKGRFTISRDNAKNTVYLQMNSLKPEDTAVYYCNADDHIYWRKGYDYWGQGTQVTVSS", "polyreactivity (PSR sort gate)": "low polyreactivity"}
{"sequence": "QVQLVESGGGLLHAGGSLRLSCAASGRTFPSYAMGWYRQAPGKERELVAAISSRGSRTYYADSVKGRFTISRDNAKNTVYLQMYSLKPEDTAVYYCAAKNLWTRKSRYDYWGQGTQVTVSS", "polyreactivity (PSR sort gate)": "high polyreactivity"}
{"sequence": "QVQLVESGGGLLKAGGSLRLSCAASGFTVDGYGMGWYRQAPGKERELVAVITSGGSTKYADSVKGRYTISRDNAKITVYLQMKSLKPEDTAVYYCNVVGGRYLYSAYDYWGQGTQVTVSS", "polyreactivity (PSR sort gate)": "low polyreactivity"}
{"sequence": "QVQLVESGGGLLKAGGSLRLSCAASRITFYIYPIVWYRQAPGKERELVATISWSDGRTYYADSVKGRFTISRDNAEHTVYLQLYSLKPEDTAVYYCAADWWYYQFDYEYWGQGTPVTVSS", "polyreactivity (PSR sort gate)": "low polyreactivity"}
{"sequence": "QVQLVESGGGLLLAGGSLRLSCAASGNIFRANTRGWYRQAPGKERELVASIRRSGGSTYYADSVKGRFTISRDNAKNTVYLQMNSLKPEDTAVYYCAAKSRPPYTDNYYWGQGTQVTVSS", "polyreactivity (PSR sort gate)": "high polyreactivity"}
{"sequence": "QVQLVESGGGLLQAAGSLSLSCAASGSIFKYYAMGWYRQAPGKERELVAAISASGGSTSYADSVKGRFTISRDNAKNTVYLQMNSLKPEDTAVYYCAADGVSYAYRYDYWGQGTQVTVSS", "polyreactivity (PSR sort gate)": "low polyreactivity"}
{"sequence": "QVQLVESGGGLLQAGGRLRLSCAASGSIFAAYTMGWYRQAPWKERELVAAISVSTVSTYYADSVKGRFTISRDNAKITVYLQMNSLKPEDTAVYYCNADPTDSYPQKYEHDSWGQGTQVTVSS", "polyreactivity (PSR sort gate)": "low polyreactivity"}
{"sequence": "QVQLVESGGGLLQAGGSLPLSCAASGRIFHQYAMGWYRQAPGKERELVAAISKTGTRTYYADSVKGRFTISRDNAKNTVYFQINSLKPDDTAVYYCNALYWTVYSREYDYWGQATQVTVSS", "polyreactivity (PSR sort gate)": "high polyreactivity"}
{"sequence": "QVQLVESGGGLLQAGGSLPLSCAASGSIFPGYAMGWYRQAPGKERELVATITWSGGSTYYADSVKGRFTISRDNAKNTVYLQMNSLNPADTAVYYCNADSNWYYQWNYYGLYDYWGQATQVTVSS", "polyreactivity (PSR sort gate)": "low polyreactivity"}
{"sequence": "QVQLVESGGGLLQAGGSLRISCAASGIIFRLYDMAWYRQAPGKERELVAAISSGGSTYYADSVKGRFTISRDNAKNTVYLQMNSLKPVDTAVYYCNARVRYKRTGRYGYWGQVTQVTVSS", "polyreactivity (PSR sort gate)": "high polyreactivity"}
{"sequence": "QVQLVESGGGLLQAGGSLRISCAASGSTFGVYAMGWYIPAPGKERELVAVIRRGGGTDYADSVKGRYTISRDNAKNTVYLQLDSLIPVDTAVYSCAATVVRTGYLTLEMDYWGQGTQVTVSA", "polyreactivity (PSR sort gate)": "low polyreactivity"}
{"sequence": "QVQLVESGGGLLQAGGSLRLICAASGSTFSTNAMGWYRQAPGKERELVAAISRSGGSTNYADSVKGRFTISRDNAKNTVYLQMNSLKPEDTAVYYCARYSYRGTNVRYDYWGQGTQVTVSS", "polyreactivity (PSR sort gate)": "high polyreactivity"}
{"sequence": "QVQLVESGGGLLQAGGSLRLSCAASGFIFRRNAMGWYIQAPGKEREFVASISKSSDLTYYADSVKGRFRISRDNAKNTVYLQMNSLKPEVTAVYYCAAKVRQWRHGSYSSQYDYWGQGTQVTVSS", "polyreactivity (PSR sort gate)": "high polyreactivity"}
{"sequence": "QVQLVESGGGLLQAGGSLRLSCAASGFTIDRYAMGWYRQAPGKERELVAAISWGGGSTYYAVSVKGRFTISRDNAKNTVYLQMNSLKPEDTAVYYCAASRGFYHPKYESWGQGTQVTVSS", "polyreactivity (PSR sort gate)": "high polyreactivity"}
{"sequence": "QVQLVESGGGLLQAGGSLRLSCAASGFTIYGYGMGWYRQAPGKERELVAGITARGSSTYYADSVKGRFTISRDNAKNTVYLQMNSLKPEDTAVYYCNSVGARVASATGMEYWGQGTQVTVSS", "polyreactivity (PSR sort gate)": "high polyreactivity"}
{"sequence": "QVQLVESGGGLLQAGGSLRLSCAASGGMFKYNAMGWYRQAPRKARELVPAINYSGGRTYYADSVKGRFTISRDNAKNTVYLQMTSLKPEDTAVDYCNALTRGHTGQPYTYDYWGQGTQVTVSS", "polyreactivity (PSR sort gate)": "high polyreactivity"}
{"sequence": "QVQLVESGGGLLQAGGSLRLSCAASGGTFERNAMGWYRQAPGKERELVAAISISGGRTYYADSVKGRFTISRDNAKNTVYLQMKSLKPEDTAVYFCAAGVGSRIKQVGNDYWGQGTQVTVSS", "polyreactivity (PSR sort gate)": "high polyreactivity"}
{"sequence": "QVQLVESGGGLLQAGGSLRLSCAASGIIFFYYSMGWYRQAPGKERELVAAISSDGSTYYADSVKGRFTSSRDNAKNTVYLQMNSLKPEDTAVDYCAAQYNHWWEYDYWGQGTQVTVSS", "polyreactivity (PSR sort gate)": "low polyreactivity"}
{"sequence": "QVQLVESGGGLLQAGGSLRLSCAASGIIFSDYAMGRYRQAPRKERELVAAITSSGGSTYYADSVKGRFTISRDNAKNTVYLQMNSLKPEDPAVYYCAAQCYDYWYDYDYWGQGTQVTVSS", "polyreactivity (PSR sort gate)": "high polyreactivity"}
{"sequence": "QVQLVESGGGLLQAGGSLRLSCAASGIILYWNTMGWYRQAPGKERELVAAITWSVGRTYYADSVKGRFTISRDNAKNTVYLQMNSLKPEDTAVYYCNAGYDSYSRDYWGQGTQVTVSS", "polyreactivity (PSR sort gate)": "low polyreactivity"}
{"sequence": "QVQLVESGGGLLQAGGSLRLSCAASGITFQGYAMGWYRQAPGKERELVAAITYRGGSTYYADSVKGRFTISRDNAKNTVYLQMNSLKPEDTAVYYCARDHSRHLHPSWLDYWGQGTQVTVSS", "polyreactivity (PSR sort gate)": "high polyreactivity"}
{"sequence": "QVQLVESGGGLLQAGGSLRLSCAASGITFTGYAMGWYRQAPGKERELVAVISETGGSTYADSVKGRFTISRDNAKNTVYLQMNSLKPEDTAVYYCAARLWWPYSTAWAKMDYWGQGTQVTVSS", "polyreactivity (PSR sort gate)": "low polyreactivity"}
{"sequence": "QVQLVESGGGLLQAGGSLRLSCAASGLIFANYAMGWYRQAPGKERELVAAITWSGGTTYYADSVKGRFTISRDNAKNTVYLQMNSLKPEDTAVYYCAAEVPYYQAAEYDYWGQGTQVTVSS", "polyreactivity (PSR sort gate)": "low polyreactivity"}
{"sequence": "QVQLVESGGGLLQAGGSLRLSCAASGNIFYRYAMGWYRQAPGKERELVAAISGNSGNTYYADSVKGRFTISRDNAKNTVYLQIHSLNPEDTAVYYSAAERRAFGHYSGGQGTQVTVSS", "polyreactivity (PSR sort gate)": "high polyreactivity"}
{"sequence": "QVQLVESGGGLLQAGGSLRLSCAASGNTFITNAKGWYRQAPGKERDLVAAISSGGTTYYADSVKGRFTISRDTAKNTVYLQMYSLKPEDTAVYYCATDIHSVHNNRDKHDYDYWGQGTQVTVSS", "polyreactivity (PSR sort gate)": "low polyreactivity"}
{"sequence": "QVQLVESGGGLLQAGGSLRLSCAASGRIFAQYAMGWYRQAPGKEREFDAGISTTGGSTYYADSVKGRFTISRDNAKNTVYLQMNSLKPEETAVYYCAADRRDRSPFYYWGQGTQVTVSS", "polyreactivity (PSR sort gate)": "high polyreactivity"}
{"sequence": "QVQLVESGGGLLQAGGSLRLSCAASGRIFGSYAMGWYRQAPGKERELVAGIRSVGSTNYADSVKGRFTISRDNAKNTVYLQMNSLKPEDTAVYYCAARLWHLSYAGQGGDYWGQGTQVTVSS", "polyreactivity (PSR sort gate)": "low polyreactivity"}
{"sequence": "QVQLVESGGGLLQAGGSLRLSCAASGRIFTWNAMGWYRQAPGKERELVARISSGTPTNYADSLKGRFTISRDNAKNTVYLQMNCLKPEDTAVYYCAAQSRPPFVKQYWWQRDYWGQATQVTVSS", "polyreactivity (PSR sort gate)": "high polyreactivity"}
{"sequence": "QVQLVESGGGLLQAGGSLRLSCAASGRIFVNYAMGWYRQAPGKERELVAVISRSGGGTNYADSVKGRFTISRDNAKNTVYLQMNSLKQEDTAVYYCAADSYYYPYDYWGQGTQVTVSS", "polyreactivity (PSR sort gate)": "high polyreactivity"}
{"sequence": "QVQLVESGGGLLQAGGSLRLSCAASGRIIGWYAMGWYRPAPGKERELVAAISRGGTRTNYADSVKGRFTISRDNAKNTVYLQMNSLKPEDTAVYSCAAGGSWCQNGYWGQGTQVTVSS", "polyreactivity (PSR sort gate)": "high polyreactivity"}
{"sequence": "QVQLVESGGGLLQAGGSLRLSCAASGRTFGFYTMGWYRQAPGKERELVAGISRGGSTTYADSVKGRFTISRDNAKKTVYVEMNSLKQEDTAVYYSNADRSHYWLPYGVRFDYWGLGTQVTVSS", "polyreactivity (PSR sort gate)": "low polyreactivity"}
